Assay results taken from patent publication US20240123070A1 (SHANGHAI GENBASE BIOTECHNOLOGY, published 2024).
Positions count from the first letter of the chain named.

B1: B8.2.4 TCR mutant β95Q-A (TCR, V domains shown)
V domain 1: AQKITQTQPGMFVQEKEAVTLDCTYDTSDPSYGLFWYKQPSSGEMIFLIYQGSYDQQNATEGRYSLNFQKARKSANLVISASQLGDSAMYFCAMRERTGTASKLTFGTGTRLQVTL
V domain 2: DVKVTQSSRYLVKRTGEKVFLECVQDMDHENMFWYRQDPGLGLRLIYFSYDVKMKEKGDIPEGYSVSREKKERFSLILESASTNQTSMYLCASSATVPPQHFGDGTRLSILE
B2: B8.2.4 TCR mutant β95Q-M (TCR, V domains shown)
V domain 1: B1 V domain 1
V domain 2: B1 V domain 2 with A95M
B3: B8.2.4 TCR mutant β95Q-C (TCR, V domains shown)
V domain 1: B1 V domain 1
V domain 2: B1 V domain 2 with A95C
B4: B8.2.4 TCR mutant β95Q-S (TCR, V domains shown)
V domain 1: B1 V domain 1
V domain 2: B1 V domain 2 with A95S
B5: B8.2.4 TCR mutant β95Q-H (TCR, V domains shown)
V domain 1: B1 V domain 1
V domain 2: B1 V domain 2 with A95H
B6: B8.2.4 TCR mutant β95Q-G (TCR, V domains shown)
V domain 1: B1 V domain 1
V domain 2: B1 V domain 2 with A95G
B7: B8.2.4 TCR mutant β95Q-F (TCR, V domains shown)
V domain 1: B1 V domain 1
V domain 2: B1 V domain 2 with A95F
B8: B8.2.4 TCR mutant β95Q-L (TCR, V domains shown)
V domain 1: B1 V domain 1
V domain 2: B1 V domain 2 with A95L
B9: B8.2.4 TCR mutant β95Q-D (TCR, V domains shown)
V domain 1: B1 V domain 1
V domain 2: B1 V domain 2 with A95D
B10: B8.2.4 TCR mutant β95Q-I (TCR, V domains shown)
V domain 1: B1 V domain 1
V domain 2: B1 V domain 2 with A95I
B11: B8.2.4 TCR mutant β95Q-T (TCR, V domains shown)
V domain 1: B1 V domain 1
V domain 2: B1 V domain 2 with A95T
B12: B8.2.4 TCR mutant β95Q-V (TCR, V domains shown)
V domain 1: B1 V domain 1
V domain 2: B1 V domain 2 with A95V
B13: B8.2.4 TCR mutant β95Q-N (TCR, V domains shown)
V domain 1: B1 V domain 1
V domain 2: B1 V domain 2 with A95N
B14: B8.2.4 TCR mutant β95Q-E (TCR, V domains shown)
V domain 1: B1 V domain 1
V domain 2: B1 V domain 2 with A95E
B15: B8.2.4 TCR mutant β95Q-R (TCR, V domains shown)
V domain 1: B1 V domain 1
V domain 2: B1 V domain 2 with A95R
B16: B8.2.4 TCR mutant β95Q-P (TCR, V domains shown)
V domain 1: B1 V domain 1
V domain 2: B1 V domain 2 with A95P
B17: B8.2.4 TCR mutant β95Q-K (TCR, V domains shown)
V domain 1: B1 V domain 1
V domain 2: B1 V domain 2 with A95K
B18: B8.2.4 TCR mutant β95Q-W (TCR, V domains shown)
V domain 1: B1 V domain 1
V domain 2: B1 V domain 2 with A95W

Each binder was assayed against KRAS G13D antigen (G13D-RT6, SEQ ID NO: 20) loaded on Lovo-DPA0301:DPB0501 cells (human) (assay: cell-based or functional assay).

Row | TCR Mut RLU/WT RLU | Binder
1 | 0.86 ratio | B1
2 | 0.99 ratio | B2
3 | 1.14 ratio | B3
4 | 0.61 ratio | B4
5 | 0.68 ratio | B5
6 | 1.03 ratio | B6
7 | 0.34 ratio | B7
8 | 0.64 ratio | B8
9 | 0.6 ratio | B9
10 | 0.74 ratio | B10
11 | 0.59 ratio | B11
12 | 0.76 ratio | B12
13 | 0.6 ratio | B13
14 | 0.81 ratio | B14
15 | 0.43 ratio | B15
16 | 0.21 ratio | B16
17 | 0.3 ratio | B17
18 | 0.88 ratio | B18
